Experimental findings from US20240270846A1 (published 2024) are described below.

B1: CE115HA000 H chain altered form A56Y (antibody, human IgG1, kappa, L234A L235A, N297A, name in Kabat numbering)
heavy: QVQLVESGGGVVQPGRSLRLSCAASGFTFSNAWMHWVRQAPGKGLEWVAQIKAKSNNYYTYYAESVKGRFTISRDDSKNSLYLQMNSLKTEDTAVYYCRYVHYGAYYGVDAWGQGTTVTVSSASTKGPSVFPLAPSSKSTSGGTAALGCLVKDYFPEPVTVSWNSGALTSGVHTFPAVLQSSGLYSLSSVVTVPSSSLGTQTYICNVNHKPSNTKVDKKVEPKSCDKTHTCPPCPAPEAAGGPSVFLFPPKPKDTLMISRTPEVTCVVVDVSHEDPEVKFNWYVDGVEVHNAKTKPREEQYASTYRVVSVLTVLHQDWLNGKEYKCKVSNKALPAPIEKTISKAKGQPREPQVYTLPPSRCELTKNQVSLSCAVKGFYPSDIAVEWESNGQPENNYKTTPPVLDSDGSFFLVSKLTVDKSRWQQGNVFSCSVMHEALHNHYTQKSLSLSPDYKDDDDK
chain: EPKSSDKTHTCPPCPAPELLGGPSVFLFPPKPKDTLMISRTPEVTCVVVDVSHEDPEVKFNWYVDGVEVHNAKTKPREEQYNSTYRVVSVLTVLHQDWLNGKEYKCKVSNKALPAPIEKTISKAKGQPREPQVCTLPPSRDELTKNQVSLWCLVKGFYPSDIAVEWESNGQPENNYKTTPPVLDSDGSFFLYSKLTVDKSRWQQGNVFSCSVMHEALHNRYTQKSLSLSP
light: DIVMTQSPLSLPVTPGEPASISCRSSQSLVHSNRNTYLHWYQQKPGQAPRLLIYKVSNRFSGVPDRFSGSGSGTDFTLKISRVEAEDVGVYYCGQGTQVPYTFGQGTKLEIKRTVAAPSVFIFPPSDEQLKSGTASVVCLLNNFYPREAKVQWKVDNALQSGNSQESVTEQDSKDSTYSLSSTLTLSKADYEKHKVYACEVTHQGLSSPVTKSFNRGEC
notes: one-arm antibody
B2: CE115HA000 H chain altered form A60E (antibody, human IgG1, kappa, L234A L235A, N297A, name in Kabat numbering)
heavy: QVQLVESGGGVVQPGRSLRLSCAASGFTFSNAWMHWVRQAPGKGLEWVAQIKAKSNNYATYYEESVKGRFTISRDDSKNSLYLQMNSLKTEDTAVYYCRYVHYGAYYGVDAWGQGTTVTVSSASTKGPSVFPLAPSSKSTSGGTAALGCLVKDYFPEPVTVSWNSGALTSGVHTFPAVLQSSGLYSLSSVVTVPSSSLGTQTYICNVNHKPSNTKVDKKVEPKSCDKTHTCPPCPAPEAAGGPSVFLFPPKPKDTLMISRTPEVTCVVVDVSHEDPEVKFNWYVDGVEVHNAKTKPREEQYASTYRVVSVLTVLHQDWLNGKEYKCKVSNKALPAPIEKTISKAKGQPREPQVYTLPPSRCELTKNQVSLSCAVKGFYPSDIAVEWESNGQPENNYKTTPPVLDSDGSFFLVSKLTVDKSRWQQGNVFSCSVMHEALHNHYTQKSLSLSPDYKDDDDK
chain: EPKSSDKTHTCPPCPAPELLGGPSVFLFPPKPKDTLMISRTPEVTCVVVDVSHEDPEVKFNWYVDGVEVHNAKTKPREEQYNSTYRVVSVLTVLHQDWLNGKEYKCKVSNKALPAPIEKTISKAKGQPREPQVCTLPPSRDELTKNQVSLWCLVKGFYPSDIAVEWESNGQPENNYKTTPPVLDSDGSFFLYSKLTVDKSRWQQGNVFSCSVMHEALHNRYTQKSLSLSP
light: DIVMTQSPLSLPVTPGEPASISCRSSQSLVHSNRNTYLHWYQQKPGQAPRLLIYKVSNRFSGVPDRFSGSGSGTDFTLKISRVEAEDVGVYYCGQGTQVPYTFGQGTKLEIKRTVAAPSVFIFPPSDEQLKSGTASVVCLLNNFYPREAKVQWKVDNALQSGNSQESVTEQDSKDSTYSLSSTLTLSKADYEKHKVYACEVTHQGLSSPVTKSFNRGEC
notes: one-arm antibody
B3: CE115HA000 H chain altered form E61A (antibody, human IgG1, kappa, L234A L235A, N297A, name in Kabat numbering)
heavy: QVQLVESGGGVVQPGRSLRLSCAASGFTFSNAWMHWVRQAPGKGLEWVAQIKAKSNNYATYYAASVKGRFTISRDDSKNSLYLQMNSLKTEDTAVYYCRYVHYGAYYGVDAWGQGTTVTVSSASTKGPSVFPLAPSSKSTSGGTAALGCLVKDYFPEPVTVSWNSGALTSGVHTFPAVLQSSGLYSLSSVVTVPSSSLGTQTYICNVNHKPSNTKVDKKVEPKSCDKTHTCPPCPAPEAAGGPSVFLFPPKPKDTLMISRTPEVTCVVVDVSHEDPEVKFNWYVDGVEVHNAKTKPREEQYASTYRVVSVLTVLHQDWLNGKEYKCKVSNKALPAPIEKTISKAKGQPREPQVYTLPPSRCELTKNQVSLSCAVKGFYPSDIAVEWESNGQPENNYKTTPPVLDSDGSFFLVSKLTVDKSRWQQGNVFSCSVMHEALHNHYTQKSLSLSPDYKDDDDK
chain: EPKSSDKTHTCPPCPAPELLGGPSVFLFPPKPKDTLMISRTPEVTCVVVDVSHEDPEVKFNWYVDGVEVHNAKTKPREEQYNSTYRVVSVLTVLHQDWLNGKEYKCKVSNKALPAPIEKTISKAKGQPREPQVCTLPPSRDELTKNQVSLWCLVKGFYPSDIAVEWESNGQPENNYKTTPPVLDSDGSFFLYSKLTVDKSRWQQGNVFSCSVMHEALHNRYTQKSLSLSP
light: DIVMTQSPLSLPVTPGEPASISCRSSQSLVHSNRNTYLHWYQQKPGQAPRLLIYKVSNRFSGVPDRFSGSGSGTDFTLKISRVEAEDVGVYYCGQGTQVPYTFGQGTKLEIKRTVAAPSVFIFPPSDEQLKSGTASVVCLLNNFYPREAKVQWKVDNALQSGNSQESVTEQDSKDSTYSLSSTLTLSKADYEKHKVYACEVTHQGLSSPVTKSFNRGEC
notes: one-arm antibody
B4: CE115HA000 H chain altered form E61D (antibody, human IgG1, kappa, L234A L235A, N297A, name in Kabat numbering)
heavy: QVQLVESGGGVVQPGRSLRLSCAASGFTFSNAWMHWVRQAPGKGLEWVAQIKAKSNNYATYYADSVKGRFTISRDDSKNSLYLQMNSLKTEDTAVYYCRYVHYGAYYGVDAWGQGTTVTVSSASTKGPSVFPLAPSSKSTSGGTAALGCLVKDYFPEPVTVSWNSGALTSGVHTFPAVLQSSGLYSLSSVVTVPSSSLGTQTYICNVNHKPSNTKVDKKVEPKSCDKTHTCPPCPAPEAAGGPSVFLFPPKPKDTLMISRTPEVTCVVVDVSHEDPEVKFNWYVDGVEVHNAKTKPREEQYASTYRVVSVLTVLHQDWLNGKEYKCKVSNKALPAPIEKTISKAKGQPREPQVYTLPPSRCELTKNQVSLSCAVKGFYPSDIAVEWESNGQPENNYKTTPPVLDSDGSFFLVSKLTVDKSRWQQGNVFSCSVMHEALHNHYTQKSLSLSPDYKDDDDK
chain: EPKSSDKTHTCPPCPAPELLGGPSVFLFPPKPKDTLMISRTPEVTCVVVDVSHEDPEVKFNWYVDGVEVHNAKTKPREEQYNSTYRVVSVLTVLHQDWLNGKEYKCKVSNKALPAPIEKTISKAKGQPREPQVCTLPPSRDELTKNQVSLWCLVKGFYPSDIAVEWESNGQPENNYKTTPPVLDSDGSFFLYSKLTVDKSRWQQGNVFSCSVMHEALHNRYTQKSLSLSP
light: DIVMTQSPLSLPVTPGEPASISCRSSQSLVHSNRNTYLHWYQQKPGQAPRLLIYKVSNRFSGVPDRFSGSGSGTDFTLKISRVEAEDVGVYYCGQGTQVPYTFGQGTKLEIKRTVAAPSVFIFPPSDEQLKSGTASVVCLLNNFYPREAKVQWKVDNALQSGNSQESVTEQDSKDSTYSLSSTLTLSKADYEKHKVYACEVTHQGLSSPVTKSFNRGEC
notes: one-arm antibody
B5: CE115HA000 H chain altered form E61P (antibody, human IgG1, kappa, L234A L235A, N297A, name in Kabat numbering)
heavy: QVQLVESGGGVVQPGRSLRLSCAASGFTFSNAWMHWVRQAPGKGLEWVAQIKAKSNNYATYYAPSVKGRFTISRDDSKNSLYLQMNSLKTEDTAVYYCRYVHYGAYYGVDAWGQGTTVTVSSASTKGPSVFPLAPSSKSTSGGTAALGCLVKDYFPEPVTVSWNSGALTSGVHTFPAVLQSSGLYSLSSVVTVPSSSLGTQTYICNVNHKPSNTKVDKKVEPKSCDKTHTCPPCPAPEAAGGPSVFLFPPKPKDTLMISRTPEVTCVVVDVSHEDPEVKFNWYVDGVEVHNAKTKPREEQYASTYRVVSVLTVLHQDWLNGKEYKCKVSNKALPAPIEKTISKAKGQPREPQVYTLPPSRCELTKNQVSLSCAVKGFYPSDIAVEWESNGQPENNYKTTPPVLDSDGSFFLVSKLTVDKSRWQQGNVFSCSVMHEALHNHYTQKSLSLSPDYKDDDDK
chain: EPKSSDKTHTCPPCPAPELLGGPSVFLFPPKPKDTLMISRTPEVTCVVVDVSHEDPEVKFNWYVDGVEVHNAKTKPREEQYNSTYRVVSVLTVLHQDWLNGKEYKCKVSNKALPAPIEKTISKAKGQPREPQVCTLPPSRDELTKNQVSLWCLVKGFYPSDIAVEWESNGQPENNYKTTPPVLDSDGSFFLYSKLTVDKSRWQQGNVFSCSVMHEALHNRYTQKSLSLSP
light: DIVMTQSPLSLPVTPGEPASISCRSSQSLVHSNRNTYLHWYQQKPGQAPRLLIYKVSNRFSGVPDRFSGSGSGTDFTLKISRVEAEDVGVYYCGQGTQVPYTFGQGTKLEIKRTVAAPSVFIFPPSDEQLKSGTASVVCLLNNFYPREAKVQWKVDNALQSGNSQESVTEQDSKDSTYSLSSTLTLSKADYEKHKVYACEVTHQGLSSPVTKSFNRGEC
notes: one-arm antibody
B6: CE115HA000 H chain altered form A60D (antibody, human IgG1, kappa, L234A L235A, N297A, name in Kabat numbering)
heavy: QVQLVESGGGVVQPGRSLRLSCAASGFTFSNAWMHWVRQAPGKGLEWVAQIKAKSNNYATYYDESVKGRFTISRDDSKNSLYLQMNSLKTEDTAVYYCRYVHYGAYYGVDAWGQGTTVTVSSASTKGPSVFPLAPSSKSTSGGTAALGCLVKDYFPEPVTVSWNSGALTSGVHTFPAVLQSSGLYSLSSVVTVPSSSLGTQTYICNVNHKPSNTKVDKKVEPKSCDKTHTCPPCPAPEAAGGPSVFLFPPKPKDTLMISRTPEVTCVVVDVSHEDPEVKFNWYVDGVEVHNAKTKPREEQYASTYRVVSVLTVLHQDWLNGKEYKCKVSNKALPAPIEKTISKAKGQPREPQVYTLPPSRCELTKNQVSLSCAVKGFYPSDIAVEWESNGQPENNYKTTPPVLDSDGSFFLVSKLTVDKSRWQQGNVFSCSVMHEALHNHYTQKSLSLSPDYKDDDDK
chain: EPKSSDKTHTCPPCPAPELLGGPSVFLFPPKPKDTLMISRTPEVTCVVVDVSHEDPEVKFNWYVDGVEVHNAKTKPREEQYNSTYRVVSVLTVLHQDWLNGKEYKCKVSNKALPAPIEKTISKAKGQPREPQVCTLPPSRDELTKNQVSLWCLVKGFYPSDIAVEWESNGQPENNYKTTPPVLDSDGSFFLYSKLTVDKSRWQQGNVFSCSVMHEALHNRYTQKSLSLSP
light: DIVMTQSPLSLPVTPGEPASISCRSSQSLVHSNRNTYLHWYQQKPGQAPRLLIYKVSNRFSGVPDRFSGSGSGTDFTLKISRVEAEDVGVYYCGQGTQVPYTFGQGTKLEIKRTVAAPSVFIFPPSDEQLKSGTASVVCLLNNFYPREAKVQWKVDNALQSGNSQESVTEQDSKDSTYSLSSTLTLSKADYEKHKVYACEVTHQGLSSPVTKSFNRGEC
notes: one-arm antibody

T1 sequence (P07766 23-126): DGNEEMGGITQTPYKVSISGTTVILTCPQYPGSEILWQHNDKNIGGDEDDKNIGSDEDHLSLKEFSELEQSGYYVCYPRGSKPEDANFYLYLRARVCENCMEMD

This assay addresses T1, CD3 epsilon homodimer protein (UniProt P07766 23-126).
T1 construct: also called CD3 (CD3 epsilon)
The assay is described as follows: SPR Biacore T200, CD3 epsilon homodimer on chip, antibody as analyte.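 Note: homodimer amine-coupled to a CM4 sensor chip, run at 25 °C in HBS-EP+ buffer, with kinetic parameters derived in Biacore T200 Evaluation Software.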
As for B1, the “KD ratio (KD of CE115HA000 / KD of altered form)” value came to 0.63.
Regarding B2, the “KD ratio (KD of CE115HA000 / KD of altered form)” value was determined as 0.88.
On to B3, for which the “KD ratio (KD of CE115HA000 / KD of altered form)” value was 0.94.
Regarding B4, the “KD ratio (KD of CE115HA000 / KD of altered form)” value worked out at 0.9.
B5: the “KD ratio (KD of CE115HA000 / KD of altered form)” value was 0.82.
Consider B6, for which the “KD ratio (KD of CE115HA000 / KD of altered form)” value amounted to 0.94.
